Earlier results as cited in US9394339B2, “Stabilized formulations of peptides and proteins protecting against non-enzymatic degradation” (Lyotropic Therapeutics, Inc., priority 2007, dated 2016).

B1: Neutrophil (gelatinase) (1DFV): human protein (protein, UniProt P80188 21-198, looked up)
Neutrophil …: QDSTSDLIPAPPLSKVPLQQNFQDNQFQGKWYVVGLAGNAILREDKDPQKMYATIYELKEDKSYNVTSVLFRKKKCDYWIRTFVPGCQPGEFTLGNIKSYPGLTSYLVRVVSTNYNQHAMVFFKKVSQNREYFKITLYGRTKELTSELKENFIRFSKSLGLPENHIVFPVPIDQCIDG
B2: Thymidylate synthase (1HW3): human protein (protein, UniProt P04818 2-313, looked up)
Thymidylate synthase: PVAGSELPRRPLPPAAQERDAEPRPPHGELQYLGQIQHILRCGVRKDDRTGTGTLSVFGMQARYSLRDEFPLLTTKRVFWKGVLEELLWFIKGSTNAKELSSKGVKIWDANGSRDFLDSLGFSTREEGDLGPVYGFQWRHFGAEYRDMESDYSGQGVDQLQRVIDTIKTNPDDRRIIMCAWNPRDLPLMALPPCHALCQFYVVNSELSCQLYQRSGDMGLGVPFNIASYALLTYMIAHITGLKPGDFIHTLGDAHIYLNHIEPLKIQLQREPRPFPKLRILRKVEKIDDFKAEDFQIEGYNPHPTIKMEMAV
B3: Quinone reductase type 2 (1QR2): human protein (protein, UniProt P16083 1-231, looked up)
Ribosyldihydronicotinamide …: MAGKKVLIVYAHQEPKSFNGSLKNVAVDELSRQGCTVTVSDLYAMNLEPRATDKDITGTLSNPEVFNYGVETHEAYKQRSLASDITDEQKKVREADLVIFQFPLYWFSVPAILKGWMDRVLCQGFAFDIPGFYDSGLLQGKLALLSVTTGGTAEMYTKTGVNGDSRYFLWPLQHGTLHFCGFKVLAPQISFAPEIASEEERKGMVAAWSQRLQTIWKEEPIPCTAHWHFGQ
B4: Eosinophil cationic protein (1QMT): human protein (protein, UniProt P12724 28-160, looked up)
Eosinophil cationic protein: RPPQFTRAQWFAIQHISLNPPRCTIAMRAINNYRWRCKNQNTFLRTTFANVVNVCGNQSIRCPHNRTLNNCHRSRFRVPLLHCDLINPGAQNISNCTYADRPGRRFYVVACDNRDPRDSPRYPVVPVHLDTTI
B5: Ribonuclease inhibitor (1A4Y): human protein (protein, UniProt P13489 2-461, looked up)
Ribonuclease inhibitor: SLDIQSLDIQCEELSDARWAELLPLLQQCQVVRLDDCGLTEARCKDISSALRVNPALAELNLRSNELGDVGVHCVLQGLQTPSCKIQKLSLQNCCLTGAGCGVLSSTLRTLPTLQELHLSDNLLGDAGLQLLCEGLLDPQCRLEKLQLEYCSLSAASCEPLASVLRAKPDFKELTVSNNDINEAGVRVLCQGLKDSPCQLEALKLESCGVTSDNCRDLCGIVASKASLRELALGSNKLGDVGMAELCPGLLHPSSRLRTLWIWECGITAKGCGDLCRVLRAKESLKELSLAGNELGDEGARLLCETLLEPGCQLESLWVKSCSFTAACCSHFSSVLAQNRFLLELQISNNRLEDAGVRELCQGLGQPGSVLRVLWLADCDVSDSSCSSLAATLLANHSLRELDLSNNCLGDAGILQLVESVRQPGCLLEQLVLYDIYWSEEMEDRLQALEKDKPSLRVIS
B6: Phenylalanine hydroxylase (1DMW): human protein (protein, UniProt P00439 1-452, looked up)
Phenylalanine-4-hydroxylase: MSTAVLENPGLGRKLSDFGQETSYIEDNCNQNGAISLIFSLKEEVGALAKVLRLFEENDVNLTHIESRPSRLKKDEYEFFTHLDKRSLPALTNIIKILRHDIGATVHELSRDKKKDTVPWFPRTIQELDRFANQILSYGAELDADHPGFKDPVYRARRKQFADIAYNYRHGQPIPRVEYMEEEKKTWGTVFKTLKSLYKTHACYEYNHIFPLLEKYCGFHEDNIPQLEDVSQFLQTCTGFRLRPVAGLLSSRDFLGGLAFRVFHCTQYIRHGSKPMYTPEPDICHELLGHVPLFSDRSFAQFSQEIGLASLGAPDEYIEKLATIYWFTVEFGLCKQGDSIKAYGAGLLSSFGELQYCLSEKPKLLPLELEKTAIQNYTVTEFQPLYYVAESFNDAKEKVRNFAATIPRPFSVRYDPYTQRIEVLDNTQQLKILADSINSEIGILCSALQKIK
B7: Lithostathine (1LIT): human protein (protein, UniProt P05451 23-166, looked up)
Lithostathine-1-alpha: QEAQTELPQARISCPEGTNAYRSYCYYFNEDRETWVDADLYCQNMNSGNLVSVLTQAEGAFVASLIKESGTDDFNVWIGLHDPKKNRRWHWSSGSLVSYKSWGIGAPSSVNPGYCVSLTSSTGFQKWKDVPCEDKFSFVCKFKN
B8: O6-alkylguanine-DNA alkyltransferase (1EH6): human protein (protein, UniProt P16455 1-207, looked up)
Methylated-DNA--protein-cystei …: MDKDCEMKRTTLDSPLGKLELSGCEQGLHEIKLLGKGTSAADAVEVPAPAAVLGGPEPLMQCTAWLNAYFHQPEAIEEFPVPALHHPVFQQESFTRQVLWKLLKVVKFGEVISYQQLAALAGNPKAARAVGGAMRGNPVPILIPCHRVVCSSGAVGNYSGGLAVKEWLLAHEGHRLGKPGLGGSSGLAGAWLKGAGATSGSPPAGRN
B9: Thioltransferase (1JHB): human protein (protein, UniProt P35754 2-106, looked up)
Glutaredoxin-1: AQEFVNCKIQPGKVVVFIKPTCPYCRRAQEILSQLPIKQGLLEFVDITATNHTNEIQDYLQQLTGARTVPRVFIGKDCIGGCSDLVSLQQSGELLTRLKQIGALQ
B10: Phosphatidylethanolamine binding protein (1BD9): human protein (protein, UniProt P30086 2-187, looked up)
Phosphatidylethanolamine-bindi …: PVDLSKWSGPLSLQEVDEQPQHPLHVTYAGAAVDELGKVLTPTQVKNRPTSISWDGLDSGKLYTLVLTDPDAPSRKDPKYREWHHFLVVNMKGNDISSGTVLSDYVGSGPPKGTGLHRYVWLVYEQDRPLKCDEPILSNRSGDHRGKFKVASFRKKYELRAPVAGTCYQAEWDDYVPKLYEQLSGK
B11: Glucosamine-6-phosphate deaminase isomerase (1D9T): human protein (protein, UniProt P46926 1-289, looked up)
Glucosamine-6-phosphate …: MKLIILEHYSQASEWAAKYIRNRIIQFNPGPEKYFTLGLPTGSTPLGCYKKLIEYYKNGDLSFKYVKTFNMDEYVGLPRDHPESYHSFMWNNFFKHIDIHPENTHILDGNAVDLQAECDAFEEKIKAAGGIELFVGGIGPDGHIAFNEPGSSLVSRTRVKTLAMDTILANARFFDGELTKVPTMALTVGVGTVMDAREVMILITGAHKAFALYKAIEEGVNHMWTVSAFQQHPRTVFVCDEDATLELKVKTVKYFKGLMLVHNKLVDPLYSIKEKETEKSQSSKKPYSD

Settings: aqueous solution, pH 7.4, 37° C., Tris-HCl buffer

Molecule	T1/10 (time to 10% degradation by deamidation)
B1	44 days
B2	0.41 days
B3	50 days
B4	65 days
B5	68 days
B6	33 days
B7	74 days
B8	46 days
B9	71 days
B10	100 days

Same assay, conditions: buffer, pH 7.4

Molecule	T1/2 (half-life, deamidation)
B11	320 days

Same assay, conditions: pH 7.4

Molecule	T1/10 (time to 10% degradation by deamidation)
B11	49 days
